Source: paper PMC4151172

Molecular target: HLA-DR1 (HLA-DRB1*01:01), soluble recombinant MHCII (human)
Assay: fluorescence polarisation

Work on “HA(306-318), unlabeled influenza hemagglutinin peptide” yielded an IC50 of 25 nM.
